System: MS2 coat protein
Assay: apparent KD of MS2 coat protein; designed switch direction (-1 OFF switch, 1 ON switch): 1; higher = weaker reporter binding
How it was run: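 Designed RNA switches with common flanks were transcribed on Illumina chips by stalled E. coli RNA polymerase and titrated with SNAP-549-labelled MS2 coat protein, from 0.7 or 1.5 nM doubling to 3 µM, in Tris-HCl pH 7.5 buffer with KCl, MgCl2, BSA, DTT, tRNA and Tween-20. Steps lasted 0.8–1.5 h (lowest) to 10–20 min (highest). Titrations ran without input, with 200 uM small-molecule ligand, or with an oligonucleotide input. Normalised cluster fluorescence was curve-fitted, and apparent KD is the per-design median over clusters.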

[1] = input ligand: microRNA oligo, concentration not stated
[2] = Eterna round: R95, input ligand: FMN 200 uM
[3] = Eterna round: R95, input ligand: none
[4] = Eterna round: R95, input ligand: microRNA oligo, concentration not stated

| Sequence | apparent KD of MS2 coat protein (input ligand: FMN 200 uM) | apparent KD of MS2 coat protein [1] | apparent KD of MS2 coat protein (input ligand: none) | apparent KD of MS2 coat protein [2] | apparent KD of MS2 coat protein [3] | apparent KD of MS2 coat protein [4] |
| --- | --- | --- | --- | --- | --- | --- |
| UGAAUAGUGAUAGGAUAUACAUGAGGAAUCCUCGUAGAAGGAUCAUAACAUGAGGAUCACCCAUGUAGCCGUCCGUAGACGGCA [Mat - Same State NG 1 - JL mod - D56] (Eterna round: R96, puzzle: Same State NG 1) | 336 nM | 64 nM | 117 nM |  |  |  |
| UGAAUGGUGAUAGGAUAUACAUGAGGAAUCCUCGUAGAAGGAUCACGACAUGAGGAUCACCCAUGUAGCCGUCCGUAGACGGCU [salish99_SSNG1_r04_003] (Eterna round: R96, puzzle: Same State NG 1) | 192 nM | 75.9 nM | 255 nM |  |  |  |
| UGAUGCCCAUCAGGAUAUGGGCCCAUGAGGAUCACCCAUGUAAAGUAGGUCCAACAGGGCCAAGUCUAGAAGGGAUGGCGGGCA [malcolm 80 ssNG2 F5+F7.1] (Eterna round: R96, puzzle: Same State NG 2) | 163 nM | 59.1 nM | 190 nM |  |  |  |
| UGGAUCUAGGCUUGCCUGGGUCCAUGUUGACAUGAGGAUCACCCAUGUGUAUUUUAUAAGCUUUUUGUUUGUCAACA [JL A Humble Attempt mod 7] (puzzle: Sensor for hsa-mir-208a) |  |  |  | 37 nM | 37.6 nM |  |
| UGGAUGGUGAUAGGAUAUACAUGAGGAAUCCUCGUAGAAGGAUCACGACAUGAGGAUCACCCAUGUAGCCGUCCGUAGACGGCU [salish99_SSNG1_r04_004] (Eterna round: R96, puzzle: Same State NG 1) | 478 nM | 122 nM | 711 nM |  |  |  |
| UGGCCAGCCUGUGCUGGGCUUUAGCAUGUACAUGAGGAUCACCCAUGUCGUGUACAUGCUUUUUGCUCGUCUUUAAA [Photon Torp-06] (puzzle: Sensor for hsa-mir-208a) |  |  |  | 35.8 nM | 125 nM | 23.1 nM |
| UGGCUGGUGCUAGGAUAUGCAUGAGGCCUCCUCGUAGAAGGAGCGCGACAUGAGGAUCACCCAUGUAGCCGUCCGUAGACGGCU [salish99_SSNG1_r04_012] (Eterna round: R96, puzzle: Same State NG 1) | 165 nM | 100 nM | 193 nM |  |  |  |
| UGGUACAUGAGAGGAUAUGGGUAGAUGACAUGAGGAUCACCCAUGUUAAAGUCCGAAAGGACAUCCUAGAAGGCUCAUGUACCU [MOD of JL SSNG1 3.99] (Eterna round: R96, puzzle: Same State NG 2) | 11 nM | 27 nM | 27.7 nM |  |  |  |
| UGGUACAUGCGAGGAUAUGGGUUGAUGACAUGAGGAUCACCCAUGUUAAAUAUGCCGAGAGGCACCUAGAAGGCGCAUGUACCU [MOD2 of JL SSNG1 3.99] (Eterna round: R96, puzzle: Same State NG 2) | 10.4 nM | 23 nM | 36.9 nM |  |  |  |
| UGGUACAUGGGAGGAUAUCUCAUGGUGACAUGAGGAUCACCCAUGUAGUUGGAGCCGAAAGGCUGAGAGAAGGCCCAUGUACCU [JL SSNG1 3.75] (Eterna round: R96, puzzle: Same State NG 2) | 59.4 nM | 98 nM | 78.5 nM |  |  |  |
| UGUACAUGAGGAUCACCCAUGUCUAGACAUGUUAAUAUAAUGUAGGAUAUAUAAUAUUUAAAUUAAUAGAAGGACAAUUUUUUU [JMF's solution 3] (Eterna round: R96, puzzle: Same State NG 3) | 147 nM | 115 nM | 234 nM |  |  |  |
| UGUUAGUAGUGAGGAUAUACAUACACCUUACAUGAGGAUCACCCAUGUUUUAAGAUUGAUAGAUAGUAGAAGGCACAUGAUGAU [JR_SSNG2_Sub042] (Eterna round: R96, puzzle: Same State NG 2) |  | 38.2 nM |  |  |  |  |
| UGUUGUAUUACAGGAUAUCUAGUAUUUAUAUUUAGAGAAGGGUAUUCACAUGAGGAUCACCCAUGUAUAUACGAGGAAGUUGUG [JMF's solution 41] (Eterna round: R96, puzzle: Same State NG 1) |  | 36.9 nM |  |  |  |  |
| UGUUGUAUUACAGGAUAUCUAGUAUUUUUUUUUAGAGAAGGGUAUUCACAUGAGGAUCACCCAUGUAUAUACGAGGAAGUUGUG [JMF's solution 46] (Eterna round: R96, puzzle: Same State NG 1) |  | 46.1 nM |  |  |  |  |
| UGUUGUAUUACAGGAUAUCUAUGAUUAUUAUUUAGAGAAGGGUAUUCACAUGAGGAUCACCCAUGUAUAUACGAGGAAGUUGUG [JMF's solution 59] (Eterna round: R96, puzzle: Same State NG 1) |  | 31.2 nM |  |  |  |  |
| UGUUGUAUUACAGGAUAUCUAUGAUUUUGAUUUAGAGAAGGGUAUUCACAUGAGGAUCACCCAUGUAUAUACGAGGAAGUUGUG [JMF's solution 64] (Eterna round: R96, puzzle: Same State NG 1) |  | 40.4 nM |  |  |  |  |
| UGUUGUAUUACAGGAUAUCUAUUGGUUUUAUUUAGAGAAGGGUAUUCACAUGAGGAUCACCCAUGUAUAUACGAGGAAGUUGUG [JMF's solution 72] (Eterna round: R96, puzzle: Same State NG 1) |  | 43.3 nM |  |  |  |  |
| UGUUGUAUUACAGGAUAUCUAUUGUUUUCAUUUAGAGAAGGGUAUUCACAUGAGGAUCACCCAUGUAUAUACGAGGAAGUUGUG [JMF's solution 78] (Eterna round: R96, puzzle: Same State NG 1) | 42.1 nM | 33.1 nM | 39.9 nM |  |  |  |
| UGUUGUUAAUUAGGAUAUGGGCACAUGAGGAUCACCCAUGUAUUGUCGAUGCUAUGUGGACACGUCUAGAAGGAAUGGCUAACA [SameState NG2 #90] (Eterna round: R96, puzzle: Same State NG 2) | 72.9 nM | 88 nM | 112 nM |  |  |  |
| UUAAGCCACGGGCAGGAUAUGUGUUAAAAUACAUGAGGAUCACCCAUGUGCAGGUGUAACACCUGACAGAAGGGCCAAUCGCGGC [Soondi - 2] (puzzle: Same State 2) |  |  |  | 23.7 nM | 56.4 nM | 43 nM |
| UUAAUAAAGUAAGGAUAUACAUGAGGAUCACUCGUAGAAGGUACUAAACAUGAGGAUCACCCAUGUACCGGUCCGUAGACUGGA [Mat - Same State NG 1 - JL mod - D1] (Eterna round: R96, puzzle: Same State NG 1) | 844 nM | 108 nM | 364 nM |  |  |  |
| UUAAUCUGAACAUGAGGAUCACCCAUGUAUCUUAUUUUAGGACAGGAUAUAGAUGUUAAGAAUUACUAGAAGGGUCAGUAUAUU [JR_SSNG3_Sub011] (Eterna round: R96, puzzle: Same State NG 3) | 19.1 nM | 20.2 nM | 25.8 nM |  |  |  |
| UUAAUGAAGUAAGGAUAUACAUGAGGAUCUCUCGUAGAAGGUACUAUACAUGAGGAUCACCCAUGUGCCGGUCCGUAGACUGGA [JL SSNG1 1.04] (Eterna round: R96, puzzle: Same State NG 1) | 708 nM | 180 nM | 1280 nM |  |  |  |
| UUAAUGAUGUUAGGAUAUACAUGAGGAAUCCUCGUAGAAGGAACAUGACAUGAGGAUCACCCAUGUAACGCUCCGUAGAGCGUA [JL SSNG1 1.17] (Eterna round: R96, puzzle: Same State NG 1) |  | 44.7 nM |  |  |  |  |

From the supplement of paper PMC9170038
